{"source": "patent US20260091141A1", "about": "“GENE EDITING METHODS, SYSTEMS, AND COMPOSITIONS FOR TREATING SPINAL MUSCULAR ATROPHY” (The Broad Institute, Inc., priority 2023, published 2026)", "origin": "cited, not measured here", "molecules": {"B1": {"name": "175-307 deletion: SpCas9 mutation relative to SEQ ID NO: 209 (protein)", "chain": "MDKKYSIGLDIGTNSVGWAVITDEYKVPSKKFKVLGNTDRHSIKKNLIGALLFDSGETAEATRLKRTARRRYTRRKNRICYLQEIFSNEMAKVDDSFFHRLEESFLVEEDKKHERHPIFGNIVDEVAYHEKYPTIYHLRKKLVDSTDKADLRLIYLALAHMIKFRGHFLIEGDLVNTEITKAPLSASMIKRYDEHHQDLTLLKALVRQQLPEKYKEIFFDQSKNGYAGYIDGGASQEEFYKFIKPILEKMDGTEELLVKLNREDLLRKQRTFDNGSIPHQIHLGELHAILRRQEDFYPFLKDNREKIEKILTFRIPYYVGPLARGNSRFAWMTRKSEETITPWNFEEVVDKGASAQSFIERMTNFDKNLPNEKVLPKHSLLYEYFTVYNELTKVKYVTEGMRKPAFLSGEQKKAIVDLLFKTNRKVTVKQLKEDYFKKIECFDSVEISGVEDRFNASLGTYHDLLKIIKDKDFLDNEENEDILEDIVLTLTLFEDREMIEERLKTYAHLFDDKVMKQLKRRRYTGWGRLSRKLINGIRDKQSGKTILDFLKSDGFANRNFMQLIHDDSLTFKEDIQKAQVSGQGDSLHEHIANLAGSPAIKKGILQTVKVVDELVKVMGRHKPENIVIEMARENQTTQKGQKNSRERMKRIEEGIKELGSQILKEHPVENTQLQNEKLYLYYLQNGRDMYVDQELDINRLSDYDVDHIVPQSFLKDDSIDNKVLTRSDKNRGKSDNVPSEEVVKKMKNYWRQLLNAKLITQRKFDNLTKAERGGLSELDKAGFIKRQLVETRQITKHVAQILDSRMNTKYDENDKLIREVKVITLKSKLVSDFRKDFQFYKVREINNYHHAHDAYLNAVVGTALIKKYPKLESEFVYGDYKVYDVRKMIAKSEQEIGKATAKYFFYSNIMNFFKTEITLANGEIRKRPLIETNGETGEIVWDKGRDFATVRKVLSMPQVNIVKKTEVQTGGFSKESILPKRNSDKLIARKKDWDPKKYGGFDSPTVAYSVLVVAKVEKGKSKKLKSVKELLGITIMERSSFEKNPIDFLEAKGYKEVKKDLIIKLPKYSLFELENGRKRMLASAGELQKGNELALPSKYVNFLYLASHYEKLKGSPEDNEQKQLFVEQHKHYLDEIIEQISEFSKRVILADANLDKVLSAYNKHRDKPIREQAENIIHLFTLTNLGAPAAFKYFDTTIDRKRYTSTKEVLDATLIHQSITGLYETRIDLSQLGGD", "modifications": "serotype M1; Streptococcus pyogenes"}}, "tested_on": "DNA", "settings": "SpCas9 mutation relative to SEQ ID NO: 209; UniProtKB Q99ZW2 entry"}
{"molecule": "B1", "values": [{"measurement": "Function/Characteristic (as reported)", "result": "About 50% decreased DNA cleavage"}]}
